From paper PMC5024103, “Catalytic Thr or Ser Residue Modulates Structural Switches in 2-Cys Peroxiredoxin by Distinct Mechanisms” (Scientific Reports, 2016)
Changes are numbered by the printed parent chain. In names and notes the source's numbering stands. One block for each molecule: values may come before it.

Legend:
[1] = biological target: Tsa1^T44S (S. cerevisiae) (UniProt P34760); assay: SEC; analytical HPLC, Phenomenex BioSep-SEC-S3000, 50 uM enzyme, 100 mM Tris-HCl pH 7.4, 50 mM NaCl, 1 mL/min; samples reduced with 5 mM TCEP for 30 min at 25 C; dimers to decamer
[2] = biological target: Tsa1^T44S (S. cerevisiae) (UniProt P34760); assay: SEC; analytical HPLC, Phenomenex BioSep-SEC-S3000, 50 uM enzyme, 100 mM Tris-HCl pH 7.4, 50 mM NaCl, 1 mL/min; samples reduced with TCEP and then oxidised (disulfide) with 1.2 molar equivalents of H2O2 for 30 min at 25 C; dimers to decamer
[3] = biological target: Tsa1^T44A (S. cerevisiae) (UniProt P34760); assay: SEC; analytical HPLC, Phenomenex BioSep-SEC-S3000, 50 uM enzyme, 100 mM Tris-HCl pH 7.4, 50 mM NaCl, 1 mL/min; samples reduced with 5 mM TCEP for 30 min at 25 C; dimers to decamer
[4] = biological target: Tsa1^WT (typical 2-Cys peroxiredoxin Tsa1 from S. cerevisiae) (S. cerevisiae) (UniProt P34760); assay: as above
[5] = substrate: CC(C)(OO)c1ccccc1; assay: Trx system coupled assay, NADPH oxidation; format: biochemical, Saccharomyces cerevisiae; conditions: Trx1 2 μM, TrxR1 0.3 μM, NADPH 150 μM, HEPES pH 7.4, 30 °C
Source text: Trx system coupled assay, NADPH oxidation on Tsa1 (Tsa1^WT) | In the case of cumene hydroperoxide (CHP) reduction, Tsa1^WT and Tsa1^T44S also presented similar enzymatic parameters

[6] = biological target: the molecule itself; assay: SEC; analytical HPLC, Phenomenex BioSep-SEC-S3000, 50 uM enzyme, 100 mM Tris-HCl pH 7.4, 50 mM NaCl, 1 mL/min; samples reduced with TCEP and then oxidised (disulfide) with 1.2 molar equivalents of H2O2 for 30 min at 25 C; dimers to decamer
[7] = biological target: the molecule itself; assay: SEC; analytical HPLC, Phenomenex BioSep-SEC-S3000, 50 uM enzyme, 100 mM Tris-HCl pH 7.4, 50 mM NaCl, 1 mL/min; samples reduced with 5 mM TCEP for 30 min at 25 C; dimers to decamer
[8] = substrate: CC(C)(OO)c1ccccc1; assay: Trx system coupled assay, NADPH oxidation; format: biochemical, Saccharomyces cerevisiae; conditions: Trx1 2 μM, TrxR1 0.3 μM, NADPH 150 μM, HEPES pH 7.4, 30 °C; remark: listed apart in the source

stoichiometry N [1]: 10
stoichiometry N [2]: 10
Molecule: Tsa1^T44S (from UniProt P34760 1-196) (enzyme)

stoichiometry N [3]: 10
Molecule: Tsa1^T44A (from UniProt P34760 1-196) (enzyme)

stoichiometry N [4]: 10
Molecule: Tsa1^WT (typical 2-Cys peroxiredoxin Tsa1 from S. cerevisiae) (from UniProt P34760 1-196) (enzyme)

B1: Tsa1 (Tsa1^WT) (Saccharomyces cerevisiae S288C) (protein)
chain: MVAQVQKQAPTFKKTAVVDGVFDEVSLDKYKGKYVVLAFIPLAFTFVCPTEIIAFSEAAKKFEEQGAQVLFASTDSEYSLLAWTNIPRKEGGLGPINIPLLADTNHSLSRDYGVLIEEEGVALRGLFIIDPKGVIRHITINDLPVGRNVDEALRLVEAFQWTDKNGTVLPCNWTPGAATIKPTVEDSKEYFEAANK
notes: pET15b/Tsa1, His-tagged (HisTrap IMAC); homodimer ~48 kDa, decamer ~240 kDa
Km [5]: 8.80 ± 0.05 µM
kcat [5]: 0.7 ± 0.1 s⁻¹
kcat/Km [5]: 82000 ± 11000 M⁻¹ s⁻¹

B2: Tsa1^Y77A (enzyme)
chain: B1 chain with Y78A
stoichiometry N [6]: 2
stoichiometry N [7]: 2

B3: Tsa1 (Tsa1^WT) (Saccharomyces cerevisiae S288C; T45A) (protein)
chain: B1 chain with T45A
notes: as for B1
Km [8]: 300 µM

B4: Tsa1^T44V (enzyme)
chain: B1 chain with T45V
stoichiometry N [6]: 2

B5: Tsa1 (Tsa1^WT) (Saccharomyces cerevisiae S288C; T45S) (protein)
chain: B1 chain with T45S
notes: as for B1
Km [5]: 9.9 ± 1.2 µM
kcat [5]: 0.7 ± 0.1 s⁻¹
kcat/Km [5]: 75000 ± 9000 M⁻¹ s⁻¹

B6: Tsa1^S78D (enzyme)
chain: B1 chain with S79D
stoichiometry N [6]: 2
stoichiometry N [7]: 2

B7: Tsa2^WT (typical 2-Cys peroxiredoxin Tsa2 from S. cerevisiae) (enzyme)
chain: MVAEVQKQAPPFKKTAVVDGIFEEISLEKYKGKYVVLAFVPLAFSFVCPTEIVAFSDAAKKFEDQGAQVLFASTDSEYSLLAWTNLPRKDGGLGPVKVPLLADKNHSLSRDYGVLIEKEGIALRGLFIIDPKGIIRHITINDLSVGRNVNEALRLVEGFQWTDKNGTVLPCNWTPGAATIKPDVKDSKEYFKNANN
notes: Tsa2, typical 2-Cys peroxiredoxin of Saccharomyces cerevisiae (86% identity with Tsa1; Ser45 in place of Thr44 of Tsa1); Decamer in both redox states by SEC; source: E. coli BL21 (DE3), pPROEx/tsa2, purified (IMAC on HisTrap, PD10 desalting); not shown: His tag (from the vector pPROEx); copies: 10
stoichiometry N [6]: 10
stoichiometry N [7]: 10
